In publication PMC4726530 (PLoS ONE, 2016):

Legend:
[1] = target: LMS hetero-trimer unit of GAOR1 (STK17810/STK17830/STK17820) (Sulfolobus tokodaii (endogenous, purified from the cells)); assay: SEC; Superdex 200 10/30 gel filtration in buffer II (20 mM Tris-HCl pH 7.5, 0.25 M NaCl), molecular weights estimated against protein standards; oligomer of LMS hetero-trimer units
[2] = target: LMS hetero-trimer unit of GAOR2 (STK23390/STK05620/STK05610) (Sulfolobus tokodaii (endogenous, purified from the cells)); assay: crystal structure; GAOR2 purified from S. tokodaii, 8 mg/mL, sitting drop at 25°C, 0.1 M Na-acetate pH 4.5, 0.2 M CH3COONH4, 15% PEG 4,000; 2.2 Å; one LMS hetero-trimer in the asymmetric unit, (LMS)2 by crystallographic 2-fold symmetry
[3] = target: LMS hetero-trimer unit of GAOR2 (STK23390/STK05620/STK05610) (Sulfolobus tokodaii (endogenous, purified from the cells)); assay: SEC; Superdex 200 10/30 gel filtration in buffer II (20 mM Tris-HCl pH 7.5, 0.25 M NaCl), molecular weights estimated against protein standards; oligomer of LMS hetero-trimer units
[4] = target: T1, GAOR2 (FAD site in M-subunit) (Sulfurisphaera tokodaii, UniProt Q974U9); assay: X-ray crystal structure, […] Å; assay type: binding; settings: bound in M-subunit; co-purified with native enzyme; crystals at pH 4.5
T1 construct: gene ST0562; same native (LMS)2 complex as P2; M-subunit 278 aa holds FAD; Putative oxidoreductase iron-sulfur subunit (S-subunit)
T1 sequence (Q974U9 1-278): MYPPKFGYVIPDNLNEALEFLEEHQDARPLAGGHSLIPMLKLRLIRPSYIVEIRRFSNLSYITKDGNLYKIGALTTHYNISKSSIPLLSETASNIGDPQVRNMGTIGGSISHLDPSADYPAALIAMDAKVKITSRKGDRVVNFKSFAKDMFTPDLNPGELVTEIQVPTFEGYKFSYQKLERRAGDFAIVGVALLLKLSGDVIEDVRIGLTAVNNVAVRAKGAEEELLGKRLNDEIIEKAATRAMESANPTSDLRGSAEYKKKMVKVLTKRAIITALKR
T1 sequence (Q96Y29 1-706 partner): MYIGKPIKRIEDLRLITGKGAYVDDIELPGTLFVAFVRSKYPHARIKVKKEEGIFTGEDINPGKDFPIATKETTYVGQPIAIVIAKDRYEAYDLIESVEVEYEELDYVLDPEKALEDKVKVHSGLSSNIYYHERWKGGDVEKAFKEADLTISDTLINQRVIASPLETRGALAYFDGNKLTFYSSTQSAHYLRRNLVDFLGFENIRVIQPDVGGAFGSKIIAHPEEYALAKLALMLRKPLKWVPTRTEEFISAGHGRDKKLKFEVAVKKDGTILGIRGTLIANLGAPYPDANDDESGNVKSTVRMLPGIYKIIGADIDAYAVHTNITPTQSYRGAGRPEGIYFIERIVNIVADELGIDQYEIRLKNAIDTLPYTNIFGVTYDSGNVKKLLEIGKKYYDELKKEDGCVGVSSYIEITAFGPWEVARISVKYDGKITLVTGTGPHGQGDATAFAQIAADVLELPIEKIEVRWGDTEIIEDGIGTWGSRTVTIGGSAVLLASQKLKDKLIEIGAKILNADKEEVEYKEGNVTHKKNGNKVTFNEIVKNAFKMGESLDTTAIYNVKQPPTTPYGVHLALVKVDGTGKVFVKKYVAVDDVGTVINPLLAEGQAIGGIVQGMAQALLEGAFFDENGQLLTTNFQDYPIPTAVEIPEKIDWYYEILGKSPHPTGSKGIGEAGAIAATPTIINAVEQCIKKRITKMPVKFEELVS
T1 sequence (Q974V0 1-168 partner): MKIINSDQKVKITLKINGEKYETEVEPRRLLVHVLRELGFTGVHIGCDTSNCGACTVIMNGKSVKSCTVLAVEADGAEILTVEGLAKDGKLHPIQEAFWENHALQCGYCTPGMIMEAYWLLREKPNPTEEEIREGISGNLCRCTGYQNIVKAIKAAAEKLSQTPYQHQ

[5] = target: the molecule itself; assay: crystal structure; GAOR2 purified from S. tokodaii, 8 mg/mL, sitting drop at 25°C, 0.1 M Na-acetate pH 4.5, 0.2 M CH3COONH4, 15% PEG 4,000; 2.2 Å; one LMS hetero-trimer in the asymmetric unit, (LMS)2 by crystallographic 2-fold symmetry
purified protein [6] = substrate: CC=O; assay: purified protein; assay type: biochemical, Sulfurisphaera tokodaii; settings: 2 mM MV as electron acceptor, 50 mM MOPS-NaOH pH 7.0, 80°C
purified protein [7] = substrate: O=CC(O)COP(=O)(O)O; assay: purified protein; assay type: biochemical, Sulfurisphaera tokodaii; settings: 2 mM MV as electron acceptor, 50 mM MOPS-NaOH pH 7.0, 80°C
purified protein [8] = substrate: O=CCc1c[nH]c2ccccc12; assay: purified protein; assay type: biochemical, Sulfurisphaera tokodaii; settings: 2 mM MV as electron acceptor, 50 mM MOPS-NaOH pH 7.0, 80°C
purified protein [9] = substrate: O=C[C@H](O)CO; assay: purified protein; settings: 0.1 mM DCPIP as electron acceptor, 50 mM MOPS-NaOH pH 7.0, 70°C

**Q.** With “LMS hetero-trimer unit of GAOR1 (STK17810/STK17830/STK17820) (complex)” as the molecule, how does the stoichiometry N [1] read?
**A.** 4

**Q.** “LMS hetero-trimer unit of GAOR2 (STK23390/STK05620/STK05610) (complex)” was tested. Which stoichiometry N [2] did it give?
**A.** 2

**Q.** What about the stoichiometry N [3] of the same molecule?
**A.** 2

**Q.** How did the “X-ray crystal structure, 2.2 Å” value [4] turn out when `Cc1cc2nc3c(=O)[nH]c(=O)nc-3n(C[C@H](O)[C@H](O)[C@H](O)COP(=O)(O)OP(=O)(O)OC[C@H]3O[C@@H](n4cnc5c(N)ncnc54)[C@H](O)[C@@H]3O)c2cc1C` [FAD] was run?
**A.** one Mo-PCD (L-subunit), one FAD (M-subunit), two [2Fe-2S] clusters

B1: STK23390, molybdo-pyranopterin L-subunit of glyceraldehyde oxidoreductase GAOR2 (natural protein, UniProt Q96Y29 1-706, looked up)
chain: MYIGKPIKRIEDLRLITGKGAYVDDIELPGTLFVAFVRSKYPHARIKVKKEEGIFTGEDINPGKDFPIATKETTYVGQPIAIVIAKDRYEAYDLIESVEVEYEELDYVLDPEKALEDKVKVHSGLSSNIYYHERWKGGDVEKAFKEADLTISDTLINQRVIASPLETRGALAYFDGNKLTFYSSTQSAHYLRRNLVDFLGFENIRVIQPDVGGAFGSKIIAHPEEYALAKLALMLRKPLKWVPTRTEEFISAGHGRDKKLKFEVAVKKDGTILGIRGTLIANLGAPYPDANDDESGNVKSTVRMLPGIYKIIGADIDAYAVHTNITPTQSYRGAGRPEGIYFIERIVNIVADELGIDQYEIRLKNAIDTLPYTNIFGVTYDSGNVKKLLEIGKKYYDELKKEDGCVGVSSYIEITAFGPWEVARISVKYDGKITLVTGTGPHGQGDATAFAQIAADVLELPIEKIEVRWGDTEIIEDGIGTWGSRTVTIGGSAVLLASQKLKDKLIEIGAKILNADKEEVEYKEGNVTHKKNGNKVTFNEIVKNAFKMGESLDTTAIYNVKQPPTTPYGVHLALVKVDGTGKVFVKKYVAVDDVGTVINPLLAEGQAIGGIVQGMAQALLEGAFFDENGQLLTTNFQDYPIPTAVEIPEKIDWYYEILGKSPHPTGSKGIGEAGAIAATPTIINAVEQCIKKRITKMPVKFEELVS
notes: STK23390, L-subunit of GAOR2, Sulfolobus tokodaii; Carries Mo-PCD; Cys405 and Cys689 form a disulfide bridge; also called L-subunit of GAOR2; ST23390
**Q.** Which “stoichiometry N” value [5] does the source give for B1 here?
**A.** 2

**Q.** And the Km (purified protein [6])?
**A.** 1330 ± 20 µM

**Q.** And the kcat (purified protein [6])?
**A.** 3.38 ± 0.02 s⁻¹

**Q.** And the Km (purified protein [7])?
**A.** 85 ± 5 µM

**Q.** And the kcat (purified protein [7])?
**A.** 0.65 ± 0.01 s⁻¹

**Q.** What about the Km (purified protein [8]) of the same molecule?
**A.** 92 ± 17 µM

**Q.** And the kcat (purified protein [8])?
**A.** 2.77 ± 0.22 s⁻¹

**Q.** What about the Km (purified protein [9]) of the same molecule?
**A.** 30 ± 9 µM

**Q.** And the kcat (purified protein [9])?
**A.** 50.5 ± 0.05 s⁻¹

B2: GAOR3 (Sulfurisphaera tokodaii str. 7) (protein)
chain: MYVGQRVKRKEDLKLITGSGRYIDDIEIPGNLYIAILRSSVAHAKLKKIEYSDVLKLNGVYGVITGLTIPVENRPRNFPMAKDEILYMGQPIAAVLAKDRYVAVDALDYISYDYEELPAVIDPEEAINSKVKAIEDYDNIIYKKTYSGGNAEEAYEKSDVKIEEKLVISRVYAAPMEPRGLVVDYQQDRLTVYASTQSPHYMRSFLLSAFGDKVNDIRVIQADVGGAFGSKLFPYPEDYIAVFAALTYKRPVKLVNTRRDDLFSTYHSRGQIHKVKVGASKDGKINSILDDLIIDLGAAWHGTYLADIPATLITGPYDIKNAKVNVFGVLTNKTPLDQYRGAGRPEAAFVYERIMDIVADELKIDPIELRRKNIIQSTPYKNVMGLTYDSGDYNALLTKAESYYREMEQRAEELRRQGKRVGVGLSFYIEQNNFGPWESASVRLLSNGKVEVVIGAAPHGQGTATGIAQIVADELEISIDDVEVTWGDTDKISNAFGTYGSRSLTLAGNAALLASRKLKENIMKLAAQFMKSDVEELQYKDGKVFNPKTGKSMTLKEIAIKVTSNLGGVWRYKAEPTLEATASFGFDNYTFPYGSHIAMVEVTDEGVVKVLDYVAIDDIGVVVNPMLAEGQVHGGVIQGFGETLLEQIVYDNNGNLLTSTFADYLIPSAVESFNMKWFYTEIGKSNAPLPAKGIGEGATIGAPPALIRAIERAIGKRLTALPVKMEELSK
notes: LMS hetero-trimer; L 730 aa, M 278 aa, S 168 aa; 85 kDa by gel filtration; M-subunit); Putative oxidoreductase iron-sulfur subunit (S-subunit)
**Q.** B2 was tested. Which Km (purified protein [7]; enzyme about 70% pure) did it give?
**A.** 3.5 ± 1.1 µM

**Q.** What about the kcat (purified protein [7]; enzyme about 70% pure) of the same molecule?
**A.** 0.43 ± 0.03 s⁻¹

**Q.** And the Km (purified protein [8]; enzyme about 70% pure)?
**A.** 370 ± 390 µM

**Q.** And the kcat (purified protein [8]; enzyme about 70% pure)?
**A.** 3.58 ± 2.49 s⁻¹

**Q.** What about the Km (purified protein [9]; enzyme about 70% pure) of the same molecule?
**A.** 11 ± 0 µM

**Q.** What about the kcat (purified protein [9]; enzyme about 70% pure) of the same molecule?
**A.** 3.58 ± 0.11 s⁻¹
